The values below come from publication PMC10821612.

In assay [1] the target is UKNP1.2.3 E1E2 glycoprotein on HCV pseudoparticles (HCVpp) (Hepatitis C virus).
Assay [2] has as its target UKNP2.4.1 E1E2 glycoprotein on HCV pseudoparticles (HCVpp) (Hepatitis C virus (genotype 2)).
For assay [3], the target named is AMS0229 E1E2 glycoprotein on HCV pseudoparticles (HCVpp) (Hepatitis C virus (genotype 1a)).

In the case of “Soluble CD81 LEL with Strep-tag (soluble version of the long external loop of the CD81 receptor) (domain or fragment)”, the IC50 of neutralisation of HCVpp infection of Huh-7 cells (luciferase) in assay [1] was 85 µg/mL; in assay [2] it was 82 µg/mL; in assay [3], 92 µg/mL.
